Assay results as given in paper PMC12646661 (The Journal of Clinical Investigation, 2025).

Biological target: T1, rN2 (A/Hong Kong/1/1968), soluble recombinant neuraminidase (influenza A virus A/Hong Kong/1/1968 …)
T1 chain: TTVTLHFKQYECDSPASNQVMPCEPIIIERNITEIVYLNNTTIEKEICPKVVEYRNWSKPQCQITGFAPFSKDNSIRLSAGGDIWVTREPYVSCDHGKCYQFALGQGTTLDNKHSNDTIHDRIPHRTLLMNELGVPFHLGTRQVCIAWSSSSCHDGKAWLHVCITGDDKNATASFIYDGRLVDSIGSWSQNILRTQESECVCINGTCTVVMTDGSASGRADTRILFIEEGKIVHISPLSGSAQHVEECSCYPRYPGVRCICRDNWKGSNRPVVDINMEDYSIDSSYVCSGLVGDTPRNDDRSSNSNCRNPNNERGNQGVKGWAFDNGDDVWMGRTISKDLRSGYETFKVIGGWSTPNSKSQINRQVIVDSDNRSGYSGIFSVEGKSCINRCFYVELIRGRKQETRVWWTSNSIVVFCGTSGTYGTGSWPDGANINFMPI
Assay: ELISA
Conditions: both partners purified

B1: rFNI9 (recombinant version of the broadly neutralizing NA antibody FNI9) (antibody, V domains shown)
VH: QVHLVQSGAEVKEPGSSVTVSCKASGGSFNNQAISWVRQAPGQGLEWMGGIFPISGTPTSAQRFQGRVTFTADESTTTVYMDLSSLRSDDTAVYYCARAGSDYFNRDLGWENYYFASWGQGTLVTVSS
VL: EIVMTQSPATLSLSSGERATLSCRASRSVSSNLAWYQQKPGQAPRLLIYDASTRATGFSARFAGSGSGTEFTLTISSLQSEDSAIYYCQQYNNWPPWTFGQGTKVEIK
binding result: binds

B2: r1G01 (recombinant version of the previously described mAb 1G01) (antibody, V domains shown)
VH: EVQLVESGGRALRPGGSLRLSCAASGFKFDDYAMSWVRQVPGKGLEFVSGLNWNGDITAYTDSVKGRFTVSRDNAKNSLYLHINSPKPEDTALYYCARTSSWGDYTRGPEPKITWYFDLWGRGTLVTVSS
VL: DIQLTQSPSFLSASVGDRITITCRASQGIDGYLAWYQQRPGKAPNLLIYAASLLQSGVPSRFSGSGYGTEFTLTISSLQPEDFATYYCQHLDSYPLFTFGPGTKVDIK
binding result: binds
